The results in this text go back to patent publication US9988424.

For test [1], the target named is Env of AE.CM235 on infected CD4+ T cells (HIV-1).
In test [2] the target is α4β7 on RPMI 8866 cells (UniProt P13612). The test can be described thus: cells preincubated with ACT-1, adhesion to MADCAM-1 (competitor; 2 ug/ml).
Test [3] has the same target.
The target of test [4] is Env of SC22.3C2.LucR.T2A.ecto virus (HIV-1). The test can be described thus: cell-based or functional assay.
Test [5] concerns the target Env of TH023.6.I181L virus (HIV-1). The test can be described thus: cell-based or functional assay.
The target in test [6] is Env of CM244.c01.ETH2220LucR.T2A.4 virus (HIV-1). The test can be described thus: cell-based or functional assay.
Test [7] deals with Env of 427299.c12 virus (HIV-1). The test can be described thus: cell-based or functional assay.
Test [8] addresses Env of Du422.1.LucR.T2A.ecto virus (HIV-1). In words: cell-based or functional assay.
The target of test [9] is Env of AE.CM244 virus (HIV-1). In words: cell-based or functional assay.
The target in test [10] is Env of 703357.2.Q169KR170Q virus (HIV-1). The test can be described thus: cell-based or functional assay.
In test [11] the target is Env of 644039.c01b-CM235LucR.T2A.11 virus (HIV-1). In words: cell-based or functional assay.
The target of test [12] is Env of WITO.LucR.T2A.ecto virus (HIV-1). The test can be described thus: cell-based or functional assay.
Test [13] deals with Env of 92TH023 K169Q virus (HIV-1). The test can be described thus: cell-based or functional assay.
For test [14], the target named is Env of CM244NW.6.I181L virus (HIV-1). The test can be described thus: cell-based or functional assay.
The target in test [15] is Env of 427299.c12.KL.Q169K/I181L virus (HIV-1). In words: cell-based or functional assay.
Test [16] has as its target Env of 703357.2.Q169KI181L virus (HIV-1). In words: cell-based or functional assay.
Test [17] has as its target Env of 427299.c12.Q169K virus (HIV-1). In words: cell-based or functional assay.
In test [18] the target is Env of RHPA.LucR.T2A.ecto virus (HIV-1). The test can be described thus: cell-based or functional assay.
Test [19] deals with Env of Ce1086_B2.LucR.T2A.ecto virus (HIV-1). The test can be described thus: cell-based or functional assay.
Test [20] addresses Env of Du151.2.LucR.T2A.ecto virus (HIV-1). The test can be described thus: cell-based or functional assay.
For test [21], the target named is Env of 427299.c12.H81L virus (HIV-1). The test can be described thus: cell-based or functional assay.
In test [22] the target is Env of AE.92TH023 virus (HIV-1). In words: cell-based or functional assay.
In test [23] the target is Env of 703357.2.Q169K virus (HIV-1). The test can be described thus: cell-based or functional assay.
The target of test [24] is Env of CM244NW.4.K169Q virus (HIV-1). The test can be described thus: cell-based or functional assay.
Test [25] has as its target Env of 703357.c02 virus (HIV-1). In words: cell-based or functional assay.
Test [26] has as its target Env of 703357.2.I181L virus (HIV-1). In words: cell-based or functional assay.
Test [27] addresses Env of Ce1176_A3.LucR.T2A.ecto virus (HIV-1). In words: cell-based or functional assay.
In test [28] the target is Env of 1051.C22.LucR.T2A.ecto virus (HIV-1). In words: cell-based or functional assay.
In test [29] the target is Env of CM235-2.LucR.T2A.ecto virus (HIV-1). In words: cell-based or functional assay.
The target in test [30] is Env of 703357.2.Q169KR170QI181L virus (HIV-1). The test can be described thus: cell-based or functional assay.
The target of test [31] is AE.A244 gp120 D11/K169V/V172E/H173Y (HIV-1). In words: ELISA. On the technique in general: An ELISA detects its analyte on a solid surface through an enzyme-linked reagent.
Test [32] has as its target AE.427299 gp120D11 (HIV-1). In words: ELISA.
In test [33] the target is AE.A244 gp120 delta 11 (HIV-1). The test can be described thus: ELISA.
Test [34] deals with AE.427299 gp120D11/Q169K (HIV-1). The test can be described thus: ELISA.
The target of test [35] is AE.A244 gp120D11/K169V (HIV-1). In words: ELISA.
In test [36] the target is AE.A244 V1V2 Tags (HIV-1). The test can be described thus: ELISA.
For a further test, the target named is B.6240 gp140C (HIV-1). The test can be described thus: ELISA.
Test [37] deals with AE.A244 gp120 (HIV-1). The test can be described thus: ELISA.
Another test addresses A.Q23 V1V2 tags (HIV-1). In words: ELISA.
The target of test [38] is AE.A244 gD+ gp120 (HIV-1). The test can be described thus: ELISA.
Test [39] deals with AE.A244 gp120 delta 11 (HIV-1). In words: ELISA. This is another data set of the same source.
Test [40] addresses AE.A244 V1V2 Tags (HIV-1). In words: ELISA. This is another data set of the same source.
Test [41] concerns the target 92TH023 V2 cyclic peptide (HIV-1). In words: RPMI 8866 cell adhesion to coated peptide, mAb 10 ug/ml.
Test [42] addresses AE.A244 gp120 (HIV-1).
In test [43] the target is AE.A244 V1V2 Tags (HIV-1).
A further test addresses C.1086 gp120 Δ7 (HIV-1). The test can be described thus: ELISA.
Test [44] deals with J08 C.97ZA012V1V2N156QN160Q (HIV-1). The test can be described thus: ELISA.
The target in test [45] is C.CAP206 gp140, natively deglycosylated (HIV-1). In words: ELISA.
Test [46] addresses AE.A244 gp120 N160K (HIV-1). The test can be described thus: ELISA.
The target of the next test is B.JRFL gp140CF (HIV-1) (UniProt P20871). The test can be described thus: ELISA.
For test [47], the target named is Env of AE.CM235 on infected CD4+ T cells (HIV-1). In words: flow cytometry on IMC CM235-infected CD4+ T cells, 10 ug/ml, negative control.

Where two headings read alike, the source gives them in different places.

Chain of CH59 (antibody) (VH): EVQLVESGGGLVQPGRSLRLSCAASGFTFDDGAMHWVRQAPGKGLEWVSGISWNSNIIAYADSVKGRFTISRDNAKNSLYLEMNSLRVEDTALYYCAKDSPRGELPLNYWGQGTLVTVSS
Chain of CH59 (antibody) (VL): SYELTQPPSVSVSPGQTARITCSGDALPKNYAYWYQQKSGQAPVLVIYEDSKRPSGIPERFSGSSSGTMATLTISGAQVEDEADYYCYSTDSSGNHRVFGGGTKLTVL
Chain of CH01 (antibody) (heavy, form in doubt): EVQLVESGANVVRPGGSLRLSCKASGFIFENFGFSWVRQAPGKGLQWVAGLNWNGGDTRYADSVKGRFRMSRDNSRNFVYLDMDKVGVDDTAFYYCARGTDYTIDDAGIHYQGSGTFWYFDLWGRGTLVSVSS
Chain of CH01 (antibody) (light, form in doubt): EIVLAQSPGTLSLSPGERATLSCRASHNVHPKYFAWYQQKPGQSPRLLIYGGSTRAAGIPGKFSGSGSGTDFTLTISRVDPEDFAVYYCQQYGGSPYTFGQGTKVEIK

In test [1], A32 (antibody) returned a % positive cells of 94% and an FITC MFI of 19900.
One may read the % inhibition as the relative decrease from the control value, in per cent. Turning to ACT-1 (antibody), the % inhibition was determined as 71.3% with α4β7 on RPMI 8866 cells [2] and 53.3% with α4β7 on RPMI 8866 cells [3].
In general, EC50 refers to the concentration at which the effect is half-maximal. High values mean lower potency in that assay, low ones higher potency in that assay. By IC50 is commonly meant the concentration that gives 50% inhibition. A low value points to inhibition by little substance. For orientation: Kd means the free concentration of one partner at which half of the binding sites on the other are occupied at equilibrium, for simple one-to-one binding. Higher therefore signals a looser complex. A word on the koff: it is a measure of how fast the partners let go of each other. A high value points to a short-lived complex. One may read the kon as a measure of how fast the partners come together. Read a high kon as faster complex formation. On to CH01 (antibody), for which the ID50 assayed in A3R5.7 cells, SC22.3C2.LucR.T2A.ecto in test [4] is > 25 µg/mL. In addition, in [5], the ID50 assayed in TZM-bl cells, TH023.6.I181L was > 25 µg/mL. In addition, the ID50 assayed in A3R5.7 cells, CM244.c01.ETH2220LucR.T2A.4 in test [6] was determined as 0.33 µg/mL. In test [7], the ID50 assayed in TZM-bl cells, 427299.c12 was 0.09 µg/mL. Moreover, the ID50 assayed in A3R5.7 cells, Du422.1.LucR.T2A.ecto in [8] is > 25 µg/mL. For the same substance, in test [9], the ID50 assayed in TZM-bl cells, CM244.ec1 came to 0.02 µg/mL. Also, the ID50 assayed in TZM-bl cells, 703357.2.Q169KR170Q in [10] was > 25 µg/mL. In addition, the ID50 assayed in A3R5.7 cells, 644039.c01b-CM235LucR.T2A.11 in test [11] was > 25 µg/mL. The ID50 assayed in A3R5.7 cells, WITO.LucR.T2A.ecto in test [12] was determined as 0.05 µg/mL. In addition, the ID50 assayed in TZM-bl cells, TH023.6.K169Q in test [13] is 22.8 µg/mL. The same substance had an ID50 assayed in TZM-bl cells, CM244NW.6.I181L in test [14] of 0.03 µg/mL. The ID50 assayed in TZM-bl cells, 427299.c12.KL.Q169K/I181L in [15] worked out at 0.15 µg/mL. Also, the ID50 assayed in TZM-bl cells, 703357.2.Q169KI181L in test [16] was > 25 µg/mL. In test [17], this substance came in with an ID50 assayed in TZM-bl cells, 427299.c12.Q169K of 0.18 µg/mL. Further, in test [18], the ID50 assayed in A3R5.7 cells, RHPA.LucR.T2A.ecto worked out at 8.2 µg/mL. The ID50 assayed in A3R5.7 cells, Ce1086 B2.LucR.T2A.ecto in test [19] is > 25 µg/mL. The substance also gave an ID50 assayed in A3R5.7 cells, Du151.2.LucR.T2A.ecto in test [20] of 1.51 µg/mL. Also, the ID50 assayed in TZM-bl cells, 427299.c12.H81L in [21] stood at 0.16 µg/mL. The ID50 assayed in TZM-bl cells, TH023.6 in test [22] is > 25 µg/mL. For the same substance, the ID50 assayed in TZM-bl cells, 703357.2.Q169K in test [23] is > 25 µg/mL. For the same substance, in test [24], the ID50 assayed in TZM-bl cells, CM244NW.4.K169Q came to 0.05 µg/mL. Further, the ID50 assayed in TZM-bl cells, 703357.c02 in test [25] is > 25 µg/mL. The ID50 assayed in TZM-bl cells, 703357.2.I181L in test [26] is > 25 µg/mL. The substance further came in with an ID50 assayed in A3R5.7 cells, Ce1176 A3.LucR.T2A.ecto in test [27] of 0.04 µg/mL. Also, the ID50 assayed in A3R5.7 cells, 1051.C22.LucR.T2A.ecto in test [28] was > 25 µg/mL. The ID50 assayed in A3R5.7 cells, CM235-2.LucR.T2A.ecto in test [29] was determined as 0.04 µg/mL. In addition, in test [30], the ID50 assayed in TZM-bl cells, 703357.2.Q169KR170QI181L was > 25 µg/mL. The EC50 was 0.93 µg/mL in [31]; > 10 µg/mL in test [32]; 0.35 µg/mL in test [33]; > 10 µg/mL in test [34]; 0.13 µg/mL in test [35]; 1.7 nM in [36]. Also, the half-maximal effective concentration (EC50) with B.6240 gp140C (HIV-1) is > 667 nM; with AE.A244 gp120 (HIV-1) [37], 1.3 nM; with A.Q23 V1V2 tags (HIV-1) it was > 66.7 nM; in [38] it was 0.9 nM; in test [39], 0.47 nM; in test [40] it was 8.9 nM. Moreover, in [41], the % inhibition was -11.2%. Further, the IC50 with AE.A244 gp120 (HIV-1) [42] is 10 to 100 nM. For the same substance, the Kd in test [43] turned out to be 334 nM. For the same substance, in test [43], the off-rate constant (koff) came to 0.0076 s⁻¹. Moreover, the kon in test [43] stood at 23000 M⁻¹ s⁻¹.
As to CH59 (antibody), the EC50 with C.1086 gp120 Δ7 (HIV-1) is 0.07 nM; in test [44] it was > 667 nM; in [45], > 667 nM; in test [46], 0.04 nM.
With PG9 (antibody), the EC50 was found to be 0.3 nM with B.6240 gp140C (HIV-1), 279 nM in test [45] and 273 nM with B.JRFL gp140CF (HIV-1).
The substance PG16 (antibody) showed a concentration giving a half-maximal response (EC50) in the test with B.6240 gp140C (HIV-1) of 10.3 nM. This lies in the double-digit nanomolar range.
For Synagis (antibody), in test [47], the % of p24+ cells stained (background) came to 11%. Moreover, the FITC MFI in test [1] worked out at 3600.
